According to article PMC10894483, “In silico design of multipoint mutants for enhanced performance of Thermomyces lanuginosus lipase for efficient biodiesel production” (Biotechnology for Biofuels and Bioproducts, 2024):

Substrate: CCCCCCCCCCCCCCCC(=O)Oc1ccc([N+](=O)[O-])cc1
Assay: colorimetric p-nitrophenol release, Michaelis-Menten fit
Assay type: biochemical, Thermomyces lanuginosus
Settings: 45 °C, Tris-HCl pH 8.5, 10-100 mM pNPP, fermentation supernatant

B1: Thermomyces lanuginosus lipase (TLL; wt–TLL) (Thermomyces lanuginosus) (protein)
chain: EVSQDLFNQFNLFAQYSAAAYCGKNNDAPAGTNITCTGNACPEVEKADATFLYSFEDSGVGDVTGFLALDNTNKLIVLSFRGSRSIENWIGNLNFDLKEINDICSGCRGHDGFTSSWRSVADTLRQKVEDAVREHPDYRVVFTGHSLGGALATVAGADLRGNGYDIDVFSYGAPRVGNRAFAEFLTVQTGGTLYRITHTNDIVPRLPPREFGYSHSSPEYWIKSGTLVPVTRNDIVKIEGIDATGGNNQPNIPDIPAHLWYFGLIGTCL
notes: N-terminal 6xHis-tag, yeast secretion signal, secreted from Pichia pastoris GS115; fermentation supernatant used without purification (single band); 35 kDa
Km: 3.61 ± 0.10 mM
